Drawing on patent US20250171562A1, this text covers EC50 and Max effect/effect 1 µM for six molecules.

The chains are these.
B1: CIgG4B2A1(G4S)2 (Fc fusion)
chain 1: GPPCPPCPAPEFLGGPSVFLFPPKPKDTLMISRTPEVTCVVVDVSQEDPEVQFNWYVDGVEVHNAKTKPREEQFNSTYRVVSVLTVLHQDWLNGKEYKCKVSNKGLPSSIEKTISKAKGQPREPQVYTLPPCQEEMTKNQVSLWCLVKGFYPSDIAVEWESNGQPENNYKTTPPVLDSDGSFFLYSRLTVDKSRWQEGNVFSCSVMHEALHNHYTQKSLSLSLGKGGGGSGGGGSQVQLVESGGGLVQAGGSLRLSCAVFGSTFSNNVADWYRQAPGKQRELVARISASGATREYGDSVKGRFTISRDDAKNTMYLQMNNLKPEDTAVYRCHKIEWEDLSRKDYWGQGTQVTVS
chain 2: GPPCPPCPAPEFLGGPSVFLFPPKPKDTLMISRTPEVTCVVVDVSQEDPEVQFNWYVDGVEVHNAKTKPREEQFNSTYRVVSVLTVLHQDWLNGKEYKCKVSNKGLPSSIEKTISKAKGQPREPQVCTLPPSQEEMTKNQVSLSCAVKGFYPSDIAVEWESNGQPENNYKTTPPVLDSDGSFFLVSRLTVDKSRWQEGNVFSCSVMHEALHNHYTQKSLSLSLGKGGGGSGGGGSEVQLLESGGGLVQPGGSLRLSCAASGFTFGNYDMAWVRQAPGKRPEWVSSIDTGGDITHYADSVKGRFTISRDNAKNTLYLQMNSLRPEDTAVYWCATDEEYALGPNEFDYYGQGTLVTVSS
B2: CIgG4B2A1(G4S)3 (Fc fusion)
chain 1: GPPCPPCPAPEFLGGPSVFLFPPKPKDTLMISRTPEVTCVVVDVSQEDPEVQFNWYVDGVEVHNAKTKPREEQFNSTYRVVSVLTVLHQDWLNGKEYKCKVSNKGLPSSIEKTISKAKGQPREPQVYTLPPCQEEMTKNQVSLWCLVKGFYPSDIAVEWESNGQPENNYKTTPPVLDSDGSFFLYSRLTVDKSRWQEGNVFSCSVMHEALHNHYTQKSLSLSLGKGGGGSGGGGSGGGGSQVQLVESGGGLVQAGGSLRLSCAVFGSTFSNNVADWYRQAPGKQRELVARISASGATREYGDSVKGRFTISRDDAKNTMYLQMNNLKPEDTAVYRCHKIEWEDLSRKDYWGQGTQVTVS
chain 2: GPPCPPCPAPEFLGGPSVFLFPPKPKDTLMISRTPEVTCVVVDVSQEDPEVQFNWYVDGVEVHNAKTKPREEQFNSTYRVVSVLTVLHQDWLNGKEYKCKVSNKGLPSSIEKTISKAKGQPREPQVCTLPPSQEEMTKNQVSLSCAVKGFYPSDIAVEWESNGQPENNYKTTPPVLDSDGSFFLVSRLTVDKSRWQEGNVFSCSVMHEALHNHYTQKSLSLSLGKGGGGSGGGGSGGGGSEVQLLESGGGLVQPGGSLRLSCAASGFTFGNYDMAWVRQAPGKRPEWVSSIDTGGDITHYADSVKGRFTISRDNAKNTLYLQMNSLRPEDTAVYWCATDEEYALGPNEFDYYGQGTLVTVSS
B3: NIgG4D1A1(G4S)1 (Fc fusion)
chain 1: DVQLQESGGGLVQAGGSLRLSCAASGLTFSRCDMGWFRQAPGKEREFVARISANGASTHYADFVKGRFTISRDNAKNTVYLQMNYLKPEDTAVYICAAARVPVTWQLYDYWGQGTQVTVSGGGGSGPPCPPCPAPEFLGGPSVFLFPPKPKDTLMISRTPEVTCVVVDVSQEDPEVQFNWYVDGVEVHNAKTKPREEQFNSTYRVVSVLTVLHQDWLNGKEYKCKVSNKGLPSSIEKTISKAKGQPREPQVYTLPPCQEEMTKNQVSLWCLVKGFYPSDIAVEWESNGQPENNYKTTPPVLDSDGSFFLYSRLTVDKSRWQEGNVFSCSVMHEALHNHYTQKSLSLSLGK
chain 2: EVQLLESGGGLVQPGGSLRLSCAASGFTFGNYDMAWVRQAPGKRPEWVSSIDTGGDITHYADSVKGRFTISRDNAKNTLYLQMNSLRPEDTAVYWCATDEEYALGPNEFDYYGQGTLVTVSSGGGGSGPPCPPCPAPEFLGGPSVFLFPPKPKDTLMISRTPEVTCVVVDVSQEDPEVQFNWYVDGVEVHNAKTKPREEQFNSTYRVVSVLTVLHQDWLNGKEYKCKVSNKGLPSSIEKTISKAKGQPREPQVCTLPPSQEEMTKNQVSLSCAVKGFYPSDIAVEWESNGQPENNYKTTPPVLDSDGSFFLVSRLTVDKSRWQEGNVFSCSVMHEALHNHYTQKSLSLSLGK
B4: CIgG4B2A1(RS) (Fc fusion)
chain 1: GPPCPPCPAPEFLGGPSVFLFPPKPKDTLMISRTPEVTCVVVDVSQEDPEVQFNWYVDGVEVHNAKTKPREEQFNSTYRVVSVLTVLHQDWLNGKEYKCKVSNKGLPSSIEKTISKAKGQPREPQVYTLPPCQEEMTKNQVSLWCLVKGFYPSDIAVEWESNGQPENNYKTTPPVLDSDGSFFLYSRLTVDKSRWQEGNVFSCSVMHEALHNHYTQKSLSLSLGKRSQVQLVESGGGLVQAGGSLRLSCAVFGSTFSNNVADWYRQAPGKQRELVARISASGATREYGDSVKGRFTISRDDAKNTMYLQMNNLKPEDTAVYRCHKIEWEDLSRKDYWGQGTQVTVS
chain 2: GPPCPPCPAPEFLGGPSVFLFPPKPKDTLMISRTPEVTCVVVDVSQEDPEVQFNWYVDGVEVHNAKTKPREEQFNSTYRVVSVLTVLHQDWLNGKEYKCKVSNKGLPSSIEKTISKAKGQPREPQVCTLPPSQEEMTKNQVSLSCAVKGFYPSDIAVEWESNGQPENNYKTTPPVLDSDGSFFLVSRLTVDKSRWQEGNVFSCSVMHEALHNHYTQKSLSLSLGKRSEVQLLESGGGLVQPGGSLRLSCAASGFTFGNYDMAWVRQAPGKRPEWVSSIDTGGDITHYADSVKGRFTISRDNAKNTLYLQMNSLRPEDTAVYWCATDEEYALGPNEFDYYGQGTLVTVSS
B5: CIgG4B2A1(G4S)1 (Fc fusion)
chain 1: GPPCPPCPAPEFLGGPSVFLFPPKPKDTLMISRTPEVTCVVVDVSQEDPEVQFNWYVDGVEVHNAKTKPREEQFNSTYRVVSVLTVLHQDWLNGKEYKCKVSNKGLPSSIEKTISKAKGQPREPQVYTLPPCQEEMTKNQVSLWCLVKGFYPSDIAVEWESNGQPENNYKTTPPVLDSDGSFFLYSRLTVDKSRWQEGNVFSCSVMHEALHNHYTQKSLSLSLGKGGGGSQVQLVESGGGLVQAGGSLRLSCAVFGSTFSNNVADWYRQAPGKQRELVARISASGATREYGDSVKGRFTISRDDAKNTMYLQMNNLKPEDTAVYRCHKIEWEDLSRKDYWGQGTQVTVS
chain 2: GPPCPPCPAPEFLGGPSVFLFPPKPKDTLMISRTPEVTCVVVDVSQEDPEVQFNWYVDGVEVHNAKTKPREEQFNSTYRVVSVLTVLHQDWLNGKEYKCKVSNKGLPSSIEKTISKAKGQPREPQVCTLPPSQEEMTKNQVSLSCAVKGFYPSDIAVEWESNGQPENNYKTTPPVLDSDGSFFLVSRLTVDKSRWQEGNVFSCSVMHEALHNHYTQKSLSLSLGKGGGGSEVQLLESGGGLVQPGGSLRLSCAASGFTFGNYDMAWVRQAPGKRPEWVSSIDTGGDITHYADSVKGRFTISRDNAKNTLYLQMNSLRPEDTAVYWCATDEEYALGPNEFDYYGQGTLVTVSS
B6: NIgG4D1A1(RS) (Fc fusion)
chain 1: DVQLQESGGGLVQAGGSLRLSCAASGLTFSRCDMGWFRQAPGKEREFVARISANGASTHYADFVKGRFTISRDNAKNTVYLQMNYLKPEDTAVYICAAARVPVTWQLYDYWGQGTQVTVSRSGPPCPPCPAPEFLGGPSVFLFPPKPKDTLMISRTPEVTCVVVDVSQEDPEVQFNWYVDGVEVHNAKTKPREEQFNSTYRVVSVLTVLHQDWLNGKEYKCKVSNKGLPSSIEKTISKAKGQPREPQVYTLPPCQEEMTKNQVSLWCLVKGFYPSDIAVEWESNGQPENNYKTTPPVLDSDGSFFLYSRLTVDKSRWQEGNVFSCSVMHEALHNHYTQKSLSLSLGK
chain 2: EVQLLESGGGLVQPGGSLRLSCAASGFTFGNYDMAWVRQAPGKRPEWVSSIDTGGDITHYADSVKGRFTISRDNAKNTLYLQMNSLRPEDTAVYWCATDEEYALGPNEFDYYGQGTLVTVSSRSGPPCPPCPAPEFLGGPSVFLFPPKPKDTLMISRTPEVTCVVVDVSQEDPEVQFNWYVDGVEVHNAKTKPREEQFNSTYRVVSVLTVLHQDWLNGKEYKCKVSNKGLPSSIEKTISKAKGQPREPQVCTLPPSQEEMTKNQVSLSCAVKGFYPSDIAVEWESNGQPENNYKTTPPVLDSDGSFFLVSRLTVDKSRWQEGNVFSCSVMHEALHNHYTQKSLSLSLGK

This test deals with mixture of three Der p 2 specific recombinant human IgE clones H10, H12, P4E (human) (UniProt P01854). In words: RBL-SX38 IgE displacement, FACS.
Chain of mixture of three Der p 2 specific recombinant human IgE clones H10, H12, P4E (human) (P01854 other isoform, or with tags, fused parts or gaps): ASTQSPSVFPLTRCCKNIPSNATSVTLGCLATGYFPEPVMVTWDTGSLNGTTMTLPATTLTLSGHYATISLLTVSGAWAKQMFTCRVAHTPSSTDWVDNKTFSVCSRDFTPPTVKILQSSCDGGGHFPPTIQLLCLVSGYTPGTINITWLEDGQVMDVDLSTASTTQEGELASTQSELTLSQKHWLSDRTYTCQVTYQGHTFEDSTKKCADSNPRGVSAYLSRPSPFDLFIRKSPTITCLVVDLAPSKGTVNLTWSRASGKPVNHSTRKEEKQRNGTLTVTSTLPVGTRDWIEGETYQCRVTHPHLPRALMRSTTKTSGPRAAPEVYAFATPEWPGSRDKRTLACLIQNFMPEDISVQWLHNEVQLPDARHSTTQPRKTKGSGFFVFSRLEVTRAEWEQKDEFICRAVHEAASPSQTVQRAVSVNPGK
For orientation: EC50 means the concentration giving half of the maximal effect. Turning to B1, the EC50 turned out to be 1.6 nM and the Max effect/effect 1 µM worked out at 99%.

As to B2, the EC50 stood at 1.5 nM and the Max effect/effect 1 µM worked out at 98%.

Consider B3, for which the EC50 was 1.4 nM and the Max effect/effect 1 µM was determined as 99%.

On to B4, for which the EC50 stood at 273 nM and the Max effect/effect 1 µM stood at 70%.

With B5, the EC50 worked out at 8.8 nM and the Max effect/effect 1 µM is 93%.

Turning to B6, the 50% effective concentration (EC50) was found to be 1.6 nM and the Max effect/effect 1 µM was 97%.
